Assays:
[1] = molecular target: Oct-1 POU domain (POU-specific domain and homeodomain) (UniProt P14859 P14859:280-438); test: EMSA; 10 mM Hepes pH 7.9, 50 mM KCl, 0.5 mM EDTA, 30 C; apparent Kd
Zif268 zinc fingers 1-3 [2] = molecular target: T1, Zif268 zinc fingers 1-3 (UniProt P08046 P08046:336-416); test: EMSA
[3] = molecular target: GST-ZFHD1 (Zif268 fingers 1-2, GGRR linker, Oct-1 homeodomain) (synthetic chimera (mouse Zif268 / human …, UniProt P08046;P14859 P08046:333-390,P14859:378-439)); test: EMSA; 10 mM Hepes pH 7.9, 50 mM KCl, 0.5 mM EDTA, 30 C; apparent Kd; details: tags: N-terminal GST (pGEX2T)
Zif268 zinc fingers 1-3 [4] = molecular target: T1, Zif268 zinc fingers 1-3; test: as above

Oct-1 POU domain (POU-specific domain and homeodomain), sequence (P14859 280-438, one chain of several): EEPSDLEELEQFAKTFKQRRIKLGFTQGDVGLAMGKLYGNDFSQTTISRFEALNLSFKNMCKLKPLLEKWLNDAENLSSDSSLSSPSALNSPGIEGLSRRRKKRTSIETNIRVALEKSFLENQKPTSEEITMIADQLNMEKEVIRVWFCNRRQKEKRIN

B1: Oct-1 octamer site probe (dsDNA)
DNA 1: CCTCGAGGTCATTTGCATACTAGGTACC
DNA 2: GGTACCTAGTATGCAAATGACCTCGAGG
Kd [1]: 180 pM

B2: hybrid site probe TCATTATGGGCG (dsDNA)
DNA 1: CCTCGAGGTCATTATGGGCGCTAGGTACC
DNA 2: GGTACCTAGCGCCCATAATGACCTCGAGG
binding result (Zif268 zinc fingers 1-3 [2]): no binding

B3: hybrid site probe TAATGATGGGCG (dsDNA)
DNA 1: CCTCGAGGCGCCCATCATTACTAGGTACC
DNA 2: GGTACCTAGTAATGATGGGCGCCTCGAGG
Kd [3]: 840 pM

B4: Zif268 site probe (dsDNA)
DNA 1: CCTCGAGGCGCCCACGCCTAGGTACC
DNA 2: GGTACCTAGGCGTGGGCGCCTCGAGG
Kd (Zif268 zinc fingers 1-3 [4]): 330 pM
